# In US20090311693A1:
# Biological target: SK2 or SK3 channels (apamin-sensitive channels of MDA-MB-435s cells)
# Assay: cell-based or functional assay
substance,measurement,value
apamin (from UniProt P01500 28-45) (peptide),"block of whole-cell outward K+ currents in MDA-MB-435s cells (patch-clamp), IC50",< 0.1 nM
